Assay: soluble on expression in E. coli; label from the status in PepcDB or PDB records

Sequence | soluble on expression in E. coli
MAHHHHHHMLQRSLARLCAAAQRQGNKALAAEGRSFALVNREVTAIKEHIQSLVTNTNNEVLDHAGKYVLAAGGKLMRPALVVLMAHAMLPLDVSAHLLEEPIGSLDEVTPGTILPFLRLAEVTELIHTASLLHDDVIDNTDTRRGRPALHKVYDAKRAVLAGDYMLARASFYIATLQVPRIVILMTTALEELTSGELMQMDGCFDIPRYEQKSFCKTASLIANSLASTAVLAGPGNEALEQTAFDFGKHLGIAFQILDDCLDITGDEKMLGKPKLVDMKEGIATIPVLLVARRNAKVAEMVCRRFAEPGDAEFCLEAVEKEGAVAEAMHRADEHCRLGLESLHKLHHSPARDALESALSMVMNRKS | not soluble
SNANNLFVYCEIEEGIVADVSLELLTKGRSLANELNCQLEAVVAGTGLKEIEKQILPYGVDKLHVFDAEGLYPYTSLPHTSILVNLFKEEQPQICLMGATVIGRDLGPRVSSALTSGLTADCTSLEIGDHEDKKEGKVYKNLLYQIRPAFGGNIVATIVNPEHRPQMATVREGVMKKEIVSPAYQGEVIRHDVKKYVADTDYVVKVIERHVEKAKNN | soluble
MGSDKIHHHHHHMMNKREQDYWIFSVELRESKVSEENGKSIVITPLGLSAKRILIAGTVSSKQSDDRMARISLADPIGSFYVTAFSGGFNPEEKAMVDSLEVDDKAMVMGKINPYRTSEGVYLFSIRPELVSKTGEDALRLWTLKAYYFAKRRIYAIREAQKLQDPKADELISLGYSRVEAEAAISSIKNFPGYDYQRILEAIETAIYSVSTPTQLPEVRSKILNYIKENDTDGKGCKYEDIVIAAKNMGIDQSTTDEILNTLGSSGEIFEISLKRYKAVEPE | not soluble
MERHVPEPTHTLEGWHVLHDFRLLDFARWFSAPLEAREDAWEELKGLVREWRELEEAGQGSYGIYQVVGHKADLLFLNLRPGLDPLLEAEARLSRSAFARYLGRSYSFYSVVELGSQEKPLDPESPYVKPRLTPRVPKSGYVCFYPMNKRRQGQDNWYMLPAKERASLMKAHGETGRKYQGKVMQVISGAQGLDDWEWGVDLFSEDPVQFKKIVYEMRFDEVSARYGEFGPFFVGKYLDEEALRAFLGL | soluble
MGSDKIHHHHHHMKFDYEKEPSRDILCIDCKSFYASVECAERGLDPLKTMLVVMSNAENAGGLVLSASPMAKKVLGVSNVTRKNQVPAHPDLYVVPPRMNLYMKKNQEINNLYKKFVADEDHSVFSVDESFLDVTASLSYFHCETAYKMARIIQRVVYNHVGIYVTVGIGDNPLLAKLALDNGAKHSPDFIAEWRYDRVPDTVWQLPSLTDFCGIGRRMAKRLNRLGIDSVYELAQANPHLLQETFGMMGLQLYAHSWGIDRTFLGKKAPHKAEKSFGNSQILPRDYARRDQIELVLKELTEQVAARLRKAHCQTECITVYVGYSKGQIDREGRTGWRKQQTIPATNNTKVLITYVLALFREHYLAGTDVRQLGLSYGKLVWNESLQLDLFSEPEEQISEMELNYLIDKIRQKFGFQALIHTSSLLEGATAIHRSGLVGGHAGGNVGLGG | not soluble
SGGRRWNWVQSWPVWKYFKEYFPICLVKTQDLDPGHNYIFGFHPHGIFVPGAFGNFCTKYSDFKKLFPGFTSYLHVAKIWFCFPLFREYLMSNGPVSVSKESLSHVLSKDGGGNVSIIVLGGAKEALEAHPGTFTLCIRQRKGFVKMALTHGASLVPVFSFGENDLYKQINNPKGSWLRTIQDAMYDSMGVALPLIYARGIFQHYFGIMPYRKLIYTVVGRPIPVQQILNPTSEQIEELHQTYLEELKKLFNEHKGKYGIPEHETLVFK | soluble
MGSDKIHHHHHHMMKLIPRSSDISPGIDGICPGPFPPNGFTVLTDAAYGNGDCFGLYWPIGQEHKLPIVCETYHDEWRIVPAFSSIKKFEEWLEVNDDDPHENGISIEDQDFAANLFRVARKCLSTGRLDDALPLLQRATEQLPEVSEYWLALAIQYRRCKKTEAAAQAALNAYLGNWAFGVPDNKVIHLLSQAADVPNFQDDPVIQCIKEQGLDLSFGGTKENNNYPLMQMCVDTYFAQRKPLQALTLLHNYAWIMSSETTAFQERYDFNIDEWRAKFRQLCLEYFGDSRTQFT | not soluble
MSLNVFNTASDEDIKKGLASDVYFERTISAIGDKCNDLRVAMEATVSGPLDTWINFTGLDEVLKLLEGLDVDLYAIPEGTILFPRDANGLPVPFIRVEGRYCDFGMYETAILGFICQASGISTKASKVRLAAGDSPFFSFGIRRMHPAISPMIDRSAYIGGADGVSGILGAKLIDQDPVGTMPHALSIMLGDEEAWKLTLENTKNGQKSVLLIDTYMDEKFAAIKIAEMFDKVDYIRLDTPSSRRGNFEALIREVRWELALRGRSDIKIMVSGGLDENTVKKLREAGAEAFGVGTSISSAKPFDFAMDIVEVNGKPETKRGKMSGRKNVLRCTSCHRIEVVPANVQEKTCICGGSMQNLLVKYLSHGKRTSEYPRPKEIRSRSMKELEYFKDISEGHHHHHH | soluble
MPSSVELSVQAGLEHFDAAQWDALAGPQPFVRHAFLRALHDTGCASPGTGWTPCFLALRRAGLLAGAVPLYAKSHSRGEYVFDYAWADAYARNGLPYYPKLLSAVPFTPVGGARLLAHTHADRLLLARGLIQLARQFEVSSLHVLFPSDDDLLALREAGYLIRAGVQFHWRNAGYAGFDDFLAAFSHDKRKKIRQDRKKVAAERVSFRWLRGADIDAAALDFFYQCYRHTYLAHGNPPYLNLEFFRQLHAEMPDALVLILAEQDGQPVAAALNLQADGVLYGRYWGARRYIPGLHFETCYLQSIEYCIAHGQASFEGGAQGEHKMARGLLPTPTWSAHWIADTRFAAAIDDFLGHETHAIDEYRDELATHSPFRKT | not soluble
MNDALLRALSTVNDPELHRDLVSLGMIERAELSGDVAQVKVNLTTPACPLKGQIELDVRSALLQVPGVRDVQIEFGAMVRAATQPALPGVKHVVLVGSGKGGVGKSSVAVNLAASLARDGARVGLLDADVYGPSVAHMLGQGQARVTANEDRKMRPIEAHGVRFISMANLSPAGQALVWRGPMLHSAIQQFLKDSAWGELDYLIVDLPPGTGDVQLSLTQTVQVTGAVIVTTPQDVALIDAARAIDMFRKASVPVLGVVENMSYFVAPDTGLTYDIFGRGGSRKLGEQYPLLGEIPLDVEVRKDADAGAPAILAHPESVAAQALRAVARTLAGQISVRTLSELPEQLPVLLEHHHHHH | soluble
MAHHHHHHMAVLIKNNEASLVDMAVQDFIKLGIDGVYTTMKTVVSFEYIFNFTSHMRNLHKYSTNFLELQINGHNKECVTNILQNLTLENIRKSTSTSIKAGFEFINTLNDDIKKKYFSENLNYMVMVTITWDIHTDNRIPSNEPFSILCYIKCLPKHSNNVQIDIMCGERKTPNIKYSNVFDVRNKMLKLKSEDSHEVVLYNEKEEITEGLTCNFFCFFNDTLYTAKDELVLKGTMREQIIQICEEVGITLKRKVST | not soluble
MGHHHHHHSHGQSLIVLQNVGGGEAGPQEMSGVQLQPLRPAPEVTTVQLQPAQEVTTVQLQPAQEVTTVQLQPAQEVTTVQLQPVAGQLSNSSGGAVATEAPNLLVVQSGAAEELLTGPGPGEAGDGEASTGVVQDVLFETLQTDEGLQSVLVLSGADGEQTRLCVQEVETLPPGLTEPPATGPPGQKLLIIRSAPATELLDSSNTWRRHRPRCNFLAPPAV | not soluble
MLSRKIIEESDIYLATSTRDPELFPLVIDHGEGVWIYDVDGNKYLDFTSGIGVNNLGWPSHPEVIKIGIEQMQKLAHAAANDFYNIPQLELAKKLVTYSPGNFQKKVFFSNSGTEAIEASIKVVKNTGRKYIIAFLGGFHGRTFGSISLTASKAVQRSIVGPFMPGVIHVPYPNPYRNPWHINGYENPSELVNRVIEFIEDYIFVNLVPPEEVAGIFFEPIQGEGGYVIPPKNFFAELQKLAKKYGILLVDDEVQMGLGRTGKLFAIENFNTVPDVITLAKALGGGIMPIGATIFRKDLDFKPGMHSNTFGGNALACAIGSKVIDIVKDLLPHVNEIGKIFAEELQGLADDVRGIGLAWGLEYNEKKVRDRIIGESFKRGLLLLPAGRSAIRVIPPLVISEEEAKQGLDILKKVIKVVK | soluble
